Laboratory results: article PMC8136821

Molecular target: H. pylori RNase R (HpRNase R), recombinant, His-tagged (H. pylori)
Experiment: AUC

Chain of H. pylori RNase R (HpRNase R), recombinant, His-tagged (H. pylori) (P56123 whole entry): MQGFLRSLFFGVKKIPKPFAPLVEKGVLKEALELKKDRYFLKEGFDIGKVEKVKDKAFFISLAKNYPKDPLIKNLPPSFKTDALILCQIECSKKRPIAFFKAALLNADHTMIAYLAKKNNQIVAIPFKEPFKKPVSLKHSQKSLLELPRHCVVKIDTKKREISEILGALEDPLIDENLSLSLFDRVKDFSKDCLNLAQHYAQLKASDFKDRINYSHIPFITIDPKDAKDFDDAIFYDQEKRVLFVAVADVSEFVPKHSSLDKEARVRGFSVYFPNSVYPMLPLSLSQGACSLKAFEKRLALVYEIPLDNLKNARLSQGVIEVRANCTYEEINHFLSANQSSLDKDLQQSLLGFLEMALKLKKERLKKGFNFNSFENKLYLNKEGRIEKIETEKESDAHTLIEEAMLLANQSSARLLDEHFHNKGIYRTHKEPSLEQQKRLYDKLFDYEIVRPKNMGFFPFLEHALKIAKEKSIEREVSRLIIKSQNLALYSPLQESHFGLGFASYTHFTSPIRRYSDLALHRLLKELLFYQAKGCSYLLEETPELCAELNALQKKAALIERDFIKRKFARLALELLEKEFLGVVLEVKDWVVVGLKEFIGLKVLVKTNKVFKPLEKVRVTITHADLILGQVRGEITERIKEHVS
Chain of RhpA DEAD-box RNA helicase of H. pylori, recombinant, His-tagged (enzyme) (B9XXL6 whole entry): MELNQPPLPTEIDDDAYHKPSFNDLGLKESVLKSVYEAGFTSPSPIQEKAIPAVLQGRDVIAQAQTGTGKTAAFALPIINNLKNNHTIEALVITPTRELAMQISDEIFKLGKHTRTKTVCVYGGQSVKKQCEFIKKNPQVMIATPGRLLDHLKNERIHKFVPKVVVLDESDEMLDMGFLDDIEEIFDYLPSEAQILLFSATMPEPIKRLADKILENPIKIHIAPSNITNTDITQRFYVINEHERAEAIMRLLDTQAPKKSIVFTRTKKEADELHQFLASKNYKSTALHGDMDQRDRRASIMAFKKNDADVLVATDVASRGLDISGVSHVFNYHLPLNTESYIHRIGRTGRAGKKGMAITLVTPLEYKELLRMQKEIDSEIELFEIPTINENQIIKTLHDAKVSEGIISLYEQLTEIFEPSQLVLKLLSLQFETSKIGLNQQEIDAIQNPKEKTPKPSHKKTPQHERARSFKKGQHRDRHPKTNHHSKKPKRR

For “RhpA DEAD-box RNA helicase of H. pylori, recombinant, His-tagged (enzyme)”, the stoichiometry N was 1.
